According to patent US11858993B2, “Multi-specific antibodies with affinity for human A33 antigen and DOTA metal complex and uses thereof” (Memorial Sloan Kettering Cancer Center, priority 2015, dated 2024):
Entries after “also recorded” stand apart in the source; their conditions may differ.

Legend:
SW1222 tumor = experiment: ^177Lu-DOTA-Bn dose titration, tumor uptake and saturation during PRIT; assay type: in vivo, mice
Description: FIGS. 4A-4D show exemplary tumor uptake of ^177Lu-DOTA-Bn at 24 hours post injection as a function of radioactivity in the treatment of mice bearing a human colon cancer xenograft (SW1222); (FIG. 4A) uptake of amounts of ^177Lu-DOTA-Bn in various tissues. (FIG. 4B) Uptake of amounts of ^177Lu-DOTA-Bn in SW1222 tumors; (FIG. 4C) activity of ^177Lu-DOTA-Bn in SW1222 tumors and kidneys 24 hours post injection per amount of injected ^177Lu-DOTA-Bn; (FIG. 4D) pmoles of ^177Lu-DOTA-Bn binding in the tumor 24 hours post injection per amount of injected ^177Lu-DOTA-Bn. Saturation was achieved after approximately 40 MBq of injected activity.
As described herein, the present inventors provide an improved multi-step PRIT method in immunocompromised mice bearing s.c. A33-positive human colorectal tumors (SW1222) using a bispecific antibody termed huA33-C825. Such methodology includes i.v. injection of various doses of huA33-C825 and a dextran-based CA, followed with injection of ^177Lu-DOTA-Bn theranostic (i.e., diagnostic and therapeutic) hapten for simultaneous scintigraphic imaging and radioimmunotherapy. The present invention specifically describes biodistribution studies that provide optimum huA33-C825 and CA doses, followed with a series of additional biodistribution studies to determine the tumor uptake as a function of ^177Lu-DOTA-Bn doses (˜2.0-111.0 MBq) to serve as a practical and dosimetric guide for PRIT studies. Also, as described herein, tumors and kidneys were excised at 24 hours post injection of ^177Lu-DOTA-Bn at three different dose levels (11.1, 55.0, and 111.0 MBq) to examine ex vivo the ^177Lu-activity microdistribution via autoradiography, as well as correlate the ^177Lu-activity with the xenograft and tissue morphology via hematoxylin and eosin staining. Further, the estimated absolute SW1222 tumor uptake of huA33-C825 24 h p.i. of 0.25 mg/mouse based on radioactive tracer studies with ^131I-huA33-C825 was ˜90 pmol/g of tumor.

[1] = system: A33-positive SW1222 tumor; experiment: Biodistribution of ^177Lu-activity 2-120 h p.i. following PRIT; settings: 2.0 MBq ^177Lu-DOTA-Bn
Description: Briefly, ^177Lu-activity in tumor and various normal tissues determined using a biodistribution assay following PRIT with optimum A33-C825 (0.25 mg/mouse) and dextran-clearing agent doses (25% (w/w), 62.5 μg) and 2.0 MBq (˜10 pmol) of ^177Lu-DOTA-Bn. Groups of SW1222 tumor-bearing mice (n=4 to 5) were given 250 μg of huA33-C825, followed 24 h later with 25% (w/w) (62.5 μg) dextran-clearing agent, and after an additional 4 h, 2.0 MBq (˜10 pmol) of 177Lu-DOTA-Bn. […] was sacrificed at 2, 24, and 120 h p.i. of ^177Lu-DOTA-Bn for biodistribution analysis.
All animal experiments were approved by the Institutional Animal Care and Use Committee of Memorial Sloan Kettering Cancer Center and institutional guidelines for the proper and humane use of animals in research were followed. Athymic nu/nu female mice (6-8 weeks old; Harlan Sprague Dawley) were allowed to acclimate in the vivarium for at least one week. […] All reagents were given intravenously (i.v.) via the lateral tail vein. […] In addition, huA33-C825 was trace radiolabeled with I-131 to estimate tumor uptake during PRIT. […] (Lindmo, T. et al., 1990, J. Immunol. Meth. 126(2):183-189). For PRIT with non-specific IgG-C825, an equivalent mg dose of a GD2-targeted bispecific antibody (hu3F8-C825) was used in place of huA33-C825. For ex vivo biodistribution analysis, mice were euthanized by CO2(g) asphyxiation, and tumor and selected organs were harvested, rinsed with water and allowed to air-dry, weighed and radioassayed by gamma scintillation counting (Perkin Elmer Wallac Wizard 3″). Count rates were background and decay corrected, converted to activities using a system calibration factor, normalized to the administered activity, and expressed as percent injected dose per gram (% ID/g). Differences in ^177Lu-activity concentration in tumor and various tissues were analyzed by Student's unpaired t test when appropriate. […]

[2] = system: A33-positive SW1222 tumor; experiment: Estimation of absorbed doses and therapeutic index for PRIT; assay type: in vivo, mice; settings: PRIT 0.25 mg huA33-C825, 62.5 μg CA, ^177Lu-DOTA-Bn; 2-120 h p.i. data
Text: Exemplary estimates of absorbed doses for tumor and select normal tissue in female athymic mice carrying s.c. A33 positive-colorectal cancer tumors for PRIT including the optimum huA33-C825 and dextran-clearing agent doses are set forth in Table 6.

SW1222 s.c. xenografts = experiment: Three-cycle theranostic PRIT with nanoSPECT/CT dosimetry; assay type: in vivo, Nude mice
Description: Nude mice bearing established SW1222 s.c. xenografts (n=20; tumor volume=102±40 mm^3; average±standard deviation (SD)) underwent treatment (n=5-10/group) with either: no treatment (n=5), ^177Lu-DOTA-Bn only (n=5), or a three-cycle PRIT regimen consisting of anti-GPA33 PRIT+55 MBq of ^177Lu-DOTA-Bn (n=10; total: 165 MBq). Serial nanoSPECT/CT imaging was conducted on five randomly selected mice undergoing DPRIT up to 160 hours post-injection of the first cycle of ^177Lu-DOTA-Bn for dosimetry calculations.

[3] = Triple-cycle, + 55.5 MBq (×3), 165.0 MBq

huA33-C825: bispecific antibody: humanized A33 IgG1 with murine C825 anti-DOTA-Bn scFv linked to the light chain C-terminus
estimated maximum occupancy (fraction) (SW1222 tumor; 11 pmol ^177Lu-DOTA-Bn/180 pmol): 0.061
peak tumor uptake (SW1222 tumor; PRIT+55.5 ^177Lu-DOTA-Bn per cycle): 3 % ID/g
injected activity of ^177Lu-DOTA-Bn after which saturation of tumor binding was achieved (SW1222 tumor; SW1222 tumors, 24 hours post injection): approximately 40 MBq
^177Lu-DOTA-Bn bound in tumor used for maximum occupancy (SW1222 tumor; mouse, in vivo): 11 pmol
maximum ^177Lu-DOTA-Bn binding capacity (SW1222 tumor; two ^177Lu-DOTA-Bn per huA33-C825 molecule): 180 pmol/g tumor
Tumor-to-tissue ratio, Kidneys ([1]; 2 hr p.i. (n = 5)): 8.1 ± 1.7
Tumor-to-tissue ratio, Kidneys ([1]; 24 hr p.i. (n = 4)): 18.3 ± 13.4
Tumor-to-tissue ratio, Kidneys ([1]; 120 hr p.i. (n = 5)): 14.8 ± 4.9
estimated absorbed dose, Blood [2]: 0.9 cGy/MBq
estimated absorbed dose, Bone [2]: 0.6 cGy/MBq
estimated absorbed dose, Heart [2]: 1.4 cGy/MBq
estimated absorbed dose, Kidneys [2]: 5.3 cGy/MBq
estimated absorbed dose, Large Intestine [2]: 0.8 cGy/MBq
estimated absorbed dose, Liver [2]: 6.3 cGy/MBq
estimated absorbed dose, Lung [2]: 1.8 cGy/MBq
estimated absorbed dose, Muscle [2]: 0.3 cGy/MBq
estimated absorbed dose, Small Intestine [2]: 0.5 cGy/MBq
estimated absorbed dose, Spleen [2]: 6.6 cGy/MBq
estimated absorbed dose, Stomach [2]: 0.6 cGy/MBq
estimated absorbed dose, Tumor [2]: 65.8 cGy/MBq
mice cured (SW1222 s.c. xenografts; 3 cycle dosing regimen): 10/10
Complete Response (SW1222 s.c. xenografts; [3]): 10/10
Cures at 40 d post-treatment (SW1222 s.c. xenografts; [3]): 10/10
histopathologic findings of kidney, liver, spleen, and bone/marrow (SW1222 s.c. xenografts; mouse, in vivo): no remarkable histopathologic findings
radiation dose to blood (SW1222 s.c. xenografts; mouse, in vivo): 150 rads
radiation dose to kidney (SW1222 s.c. xenografts; mouse, in vivo): 875 rads
toxicity (SW1222 s.c. xenografts; three-cycle PRIT (total 165 MBq)): without detectable toxicity; also recorded: no obvious toxicities
tumor-free survival at 100 days (SW1222 s.c. xenografts; three-cycle PRIT, 55 MBq/cycle (total 165 MBq)): all treated animals
